In the supplement of paper PMC9170038:

Test system: MS2 coat protein
Experiment: apparent KD of MS2 coat protein; higher = weaker reporter binding
Settings: Eterna round: R107
Method in brief: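 Illumina sequencing clusters served as templates for on-chip transcription of the designed RNA switches. SNAP-549-labelled MS2 coat protein was then titrated in twofold steps from 0.7 or 1.5 nM to 3 µM, allowing 0.8–1.5 h per step at first and 10–20 min per step later. The buffer held 100 mM Tris-HCl pH 7.5, 80 mM KCl and 4 mM MgCl2, without or with constant ligand. Apparent KD is the median per design of normalised cluster binding-curve fits.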

[1] = input ligand: theophylline 20 uM
[2] = input ligand: tryptophan 2.4 mM
[3] = input ligand: theophylline 2 mM

In the case of “AUGUCGUUGAAUAUAGCGGCUUGGAGUGAUACCAGUAUGAUCCAAUACCCUUGGCAGCAUAACAUGAGGAUCACCCAUGUUCCAG [SSTheo A #25]”, the “apparent KD of MS2 coat protein” value (input ligand: arginine 13.2 mM) is reported as 19.5 nM, the “apparent KD of MS2 coat protein” value [1] is reported as 43.7 nM and the “apparent KD of MS2 coat protein” value [2] is reported as 18.6 nM.
For “AGAUGUAGCGGAAGGAGCGACAUGAGGAUCACCCAUGUCUCCCGUUAUGGGAGUUCCUUAGGUCAGGUAGGUCGCCGUUACGUCA [Omei Arg B SS B v1]”, the “apparent KD of MS2 coat protein” value (input ligand: arginine 13.2 mM) was 105 nM, the “apparent KD of MS2 coat protein” value (input ligand: none) was 146 nM and the “apparent KD of MS2 coat protein” value [1] was 143 nM. For the same sequence, the “apparent KD of MS2 coat protein” value [3] was 226 nM and the “apparent KD of MS2 coat protein” value [2] was 105 nM.
With “GGAUAGGACAGAAGGAGCGACAUGAGGAUCACCCAUGUGGAUCAACGACGAAAGUCGCCAUGUCAGGUAGGUCGCUGUCCUAUCG [ArgXB 8 #MS2Gate #StaticStem #MS2LeftOffAptamer]” the “apparent KD of MS2 coat protein” value (input ligand: arginine 13.2 mM) was 139 nM, the “apparent KD of MS2 coat protein” value (input ligand: none) was 511 nM and the “apparent KD of MS2 coat protein” value [1] was 549 nM. The “apparent KD of MS2 coat protein” value [3] was 969 nM and the “apparent KD of MS2 coat protein” value [2] was 918 nM.
In the case of “AGCCGAAACCUUGAUACCAGAUCAUGCUGCACAUGAGGAUCACCCAUGUCGUUAAACAUGGUCCCUUGGCAGCAAGUUAGGAUCU [Usustiusso]”, the “apparent KD of MS2 coat protein” value (input ligand: arginine 13.2 mM) is reported as 114 nM, the “apparent KD of MS2 coat protein” value [1] is reported as 161 nM and the “apparent KD of MS2 coat protein” value [2] is reported as 103 nM.
“CACGGAUGAGUGGAUCACCCUCGUAAUAACCGAGGACCGGUACGGCCGCCACUCGAAAACCGUGACCUGUACGAAAAGUGCAGGA” was tested, and the “apparent KD of MS2 coat protein” value (input ligand: arginine 13.2 mM) was 56.7 nM, the “apparent KD of MS2 coat protein” value (input ligand: none) was 36.5 nM and the “apparent KD of MS2 coat protein” value [1] was 399 nM. For the same sequence, the “apparent KD of MS2 coat protein” value [3] was 1500 nM and the “apparent KD of MS2 coat protein” value [2] was 39.8 nM.
“CAAUGCAGGUCGGCCGCCACUACACACAUGAGGAUCACCCAUGUAGUUACUGGGUGAAGUGGCAGUAGGACCGGGACCUGCAUAC [Brourdmod03]” was tested, and the “apparent KD of MS2 coat protein” value (input ligand: arginine 13.2 mM) was 246 nM, the “apparent KD of MS2 coat protein” value (input ligand: none) was 290 nM and the “apparent KD of MS2 coat protein” value [1] was 423 nM. For the same sequence, the “apparent KD of MS2 coat protein” value [3] was 772 nM and the “apparent KD of MS2 coat protein” value [2] was 807 nM.
With “GUCUUUGACGAUCUGGGAAAACCAGAUCGACGAGGACCGGUACGGCCGCCACUCGUGUUUUCUUUACAUGAGGAUCACCCAUGUA [#17 Tryptophan A Same State]” the “apparent KD of MS2 coat protein” value (input ligand: arginine 13.2 mM) was 13.2 nM, the “apparent KD of MS2 coat protein” value [1] was 15.7 nM and the “apparent KD of MS2 coat protein” value [3] was 15.1 nM.
“ACAUGAGGAUCACCCAUGUUCCUCGCCGAUACCAGUGAAGAAUUACGCCCUUGGCAGCGGAAAGAGUAUUUUGGAGAUGAGGUAC [6.Z]” was tested, and the “apparent KD of MS2 coat protein” value (input ligand: arginine 13.2 mM) was 51.7 nM, the “apparent KD of MS2 coat protein” value [1] was 127 nM and the “apparent KD of MS2 coat protein” value [2] was 66 nM.
With “AAUCUGUCGGGUGAUACCAGCCUCGGCGCAUCUCGCACCGAACAUGAGGAUCACCCAUGUGGCCCUUGGCAGCACAUGACAAAUC [Ermateus]” the “apparent KD of MS2 coat protein” value (input ligand: arginine 13.2 mM) was 113 nM, the “apparent KD of MS2 coat protein” value [1] was 767 nM and the “apparent KD of MS2 coat protein” value [2] was 654 nM.
With “GGCCUGUGGUGCGAUACCAGCUUGAGUGUACUGGCCAGGUACAUGAGGAUCACCCAUGUAAGCCCUUGGCAGCGCGUCAGAGGCC [#1 Exclusion - Theophylline B Attempt #19 (HarryS)]” the “apparent KD of MS2 coat protein” value (input ligand: arginine 13.2 mM) was 13.5 nM, the “apparent KD of MS2 coat protein” value (input ligand: none) was 8.82 nM and the “apparent KD of MS2 coat protein” value [1] was 16.9 nM. The “apparent KD of MS2 coat protein” value [3] was 30.3 nM and the “apparent KD of MS2 coat protein” value [2] was 12.1 nM.
In the case of “ACAUGAGGAUCACCCAUGUAAUGGCACGAUACCAGCUGAUCCCGUGGCCCUUGGCAGCGUCCGGUGUGGUCCGCCGGGUUGGACG [XXXMULLIN]”, the “apparent KD of MS2 coat protein” value (input ligand: arginine 13.2 mM) is reported as 24.4 nM, the “apparent KD of MS2 coat protein” value [1] is reported as 38.7 nM and the “apparent KD of MS2 coat protein” value [2] is reported as 24.1 nM.
For “GAUGAUAUUGCAGAUACCAGACACAUGAGGAUCACCCAUGUCGCUGAGAUGCUGGAUCGUGUCCCUUGGCAGCUGCGAUAUCAUC [Brazil]”, the “apparent KD of MS2 coat protein” value (input ligand: arginine 13.2 mM) was 38.7 nM, the “apparent KD of MS2 coat protein” value [1] was 106 nM and the “apparent KD of MS2 coat protein” value [2] was 49.6 nM.
With “AUAAUAAUCCUCAUGUAAGGUCCUCGAUAACGAGGACCGGUACGGCCGCCACUCGAACAUGAGGAUCACCCAUGUACGAGGACCA [M' - T' - T - MS2 - T'' Design 1]” the “apparent KD of MS2 coat protein” value (input ligand: arginine 13.2 mM) was 19.6 nM, the “apparent KD of MS2 coat protein” value [1] was 37 nM and the “apparent KD of MS2 coat protein” value [3] was 38.2 nM.
With “AACACAUGAGGAUCACCCAUGUUCUCGUGUCGAGGACCGGUACGGCCGCCACUCGGUUCUCGCGAGGAUGGUCAAAGACUAUCCA [Omei Trp A SS B v7]” the “apparent KD of MS2 coat protein” value (input ligand: arginine 13.2 mM) was 40.3 nM, the “apparent KD of MS2 coat protein” value [1] was 57.4 nM and the “apparent KD of MS2 coat protein” value [3] was 50.4 nM.
“AGAAUACAUGUUUUAAUACGGUUUACUGAUACCAGUGUAUCUAUUCACCCUUGGCAGCAGAGACAUGAGGAUCACCCAUGUAUUA [JR_Nu_ExcTheophyA_Sub022]” was tested, and the “apparent KD of MS2 coat protein” value (input ligand: arginine 13.2 mM) was 25 nM, the “apparent KD of MS2 coat protein” value [1] was 41.7 nM and the “apparent KD of MS2 coat protein” value [2] was 46.1 nM.
In the case of “AUACGGAACAGAAGGAGCGCACCGACAUGAGGAUCACCCAUGUGGGAUGGGACUCUUUUGGUGCAGGUAGGUCGCUGUCACGCAU [Maistile]”, the “apparent KD of MS2 coat protein” value (input ligand: arginine 13.2 mM) is reported as 129 nM, the “apparent KD of MS2 coat protein” value (input ligand: none) is reported as 35 nM and the “apparent KD of MS2 coat protein” value [1] is reported as 51.9 nM. The “apparent KD of MS2 coat protein” value [3] was 44 nM and the “apparent KD of MS2 coat protein” value [2] was 35.5 nM.
For “AAUUAGAUGUCGGCCGCCACUGAUGUGUCUGUUGCGUCCAGUGUGUACAUGAGGAUCACCCAUGUCAGGACCGGGACUUUAAAUU [Sodigeedar]”, the “apparent KD of MS2 coat protein” value (input ligand: arginine 13.2 mM) was 12.4 nM, the “apparent KD of MS2 coat protein” value [1] was 13.5 nM and the “apparent KD of MS2 coat protein” value [3] was 12.3 nM.
With “CUGCCUGCCUCACAUGAGGAUCACCCAUGUCGAGGACCGGUACGGCCGCCACUCGUCGUCGGUAAUACAGGCAUUGAAUAAUAUA [Esgeusla]” the “apparent KD of MS2 coat protein” value (input ligand: arginine 13.2 mM) was 9.88 nM, the “apparent KD of MS2 coat protein” value [1] was 14.5 nM and the “apparent KD of MS2 coat protein” value [3] was 11.9 nM.
In the case of “AAAACGCAACUCGAUACCAGUACACUGAGUCUUCGCCACGACAUGAGGAUCACCCAUGUGUACCCUUGGCAGCGACAGAGCCACA [theeternabot_exclusion_MS2_Theo_B_42]”, the “apparent KD of MS2 coat protein” value (input ligand: arginine 13.2 mM) is reported as 43.4 nM, the “apparent KD of MS2 coat protein” value [1] is reported as 84.9 nM and the “apparent KD of MS2 coat protein” value [2] is reported as 57.7 nM.
“ACAUAGAGAUUAAUCGUGGGCAUACUCGAUACCAGUAUUUUAACCUACCCUUGGCAGCGACAUGAGGAUCACCCAUGUGAGAUGA [XTheo A #9]” was tested, and the “apparent KD of MS2 coat protein” value (input ligand: arginine 13.2 mM) was 21.2 nM, the “apparent KD of MS2 coat protein” value [1] was 25.1 nM and the “apparent KD of MS2 coat protein” value [2] was 23 nM.
In the case of “UGACCCUUCACGGCCGCCACUCAUUUUAAGUAGAGAGAGUACAUGAGGAUCACCCAUGUGAGAGAGAGGACCGGGUGAGAUGUUG [ss-trypB-0(N)]”, the “apparent KD of MS2 coat protein” value (input ligand: arginine 13.2 mM) is reported as 15.5 nM, the “apparent KD of MS2 coat protein” value (input ligand: none) is reported as 16.3 nM and the “apparent KD of MS2 coat protein” value [1] is reported as 30.8 nM. The “apparent KD of MS2 coat protein” value [3] was 16.8 nM and the “apparent KD of MS2 coat protein” value [2] was 15.4 nM.
“CGGCCCUCACAUGAGGAUCACCCAUGUGAUACCAGCCUGGAAACAGGCCCUUGGCAGCACAGGUCAUCAAAAGAUGACCAAGCCG [TheoAX 21 #SwitchBubble]” was tested, and the “apparent KD of MS2 coat protein” value (input ligand: arginine 13.2 mM) was 15.1 nM, the “apparent KD of MS2 coat protein” value [1] was 20.5 nM and the “apparent KD of MS2 coat protein” value [2] was 11.8 nM.
“AUGUAUGUCAGAAGGAGCGUCUUUAACAUGAGGAUCACCCAUGUAACAUUGAAUUCGAUGAGACAGGUAGGUCGCUGAAUAGUAA [SS-ArgB25]” was tested, and the “apparent KD of MS2 coat protein” value (input ligand: arginine 13.2 mM) was 29.7 nM, the “apparent KD of MS2 coat protein” value (input ligand: none) was 35 nM and the “apparent KD of MS2 coat protein” value [1] was 66 nM. The “apparent KD of MS2 coat protein” value [3] was 18.8 nM and the “apparent KD of MS2 coat protein” value [2] was 21.9 nM.
In the case of “UCUCACAUGAGGAUCACCCAUGUUAAGGCCCGAGGACCGGUACGGCCGCCACUCGUUGGAAGCCGGUAACGUACGAAUCUUCCGU [theeternabot_sameState_MS2_Trp_A_18]”, the “apparent KD of MS2 coat protein” value (input ligand: arginine 13.2 mM) is reported as 16.2 nM, the “apparent KD of MS2 coat protein” value [1] is reported as 26.9 nM and the “apparent KD of MS2 coat protein” value [3] is reported as 22.9 nM.
“UAUGUGAUAGUCGUACUCUCACACUGAGAAGGAGCGCGAUAGUUCGCAGGUAGGUCGCUCAGUUAUACAUGAGGAUCACCCAUGU [Isrice]” was tested, and the “apparent KD of MS2 coat protein” value (input ligand: arginine 13.2 mM) was 25.3 nM, the “apparent KD of MS2 coat protein” value (input ligand: none) was 32.6 nM and the “apparent KD of MS2 coat protein” value [1] was 32.9 nM. The “apparent KD of MS2 coat protein” value [3] was 32.4 nM and the “apparent KD of MS2 coat protein” value [2] was 26.4 nM.
With “GAGUAAACUACGGCCGCCACUCAAGGAGAUCAAUAGAUCAUCGACAUGAGGAUCACCCAUGUAAAGAGGACCGGGUAGAUCCUUA [Same State Typrtophan B GF1]” the “apparent KD of MS2 coat protein” value (input ligand: arginine 13.2 mM) was 97.8 nM, the “apparent KD of MS2 coat protein” value (input ligand: none) was 214 nM and the “apparent KD of MS2 coat protein” value [1] was 98.9 nM. For the same sequence, the “apparent KD of MS2 coat protein” value [3] was 362 nM and the “apparent KD of MS2 coat protein” value [2] was 100 nM.
